Assay results: US7381803 (PROTEIN DESIGN LABS, dated 2008)
One block for each binder: values may come before it.

Tests used:
[1] = target: 28/32 kDa heterodimeric protein on the surface of malignant B-cells; test: Scatchard analysis, 125I-labelled antibody on Raji cells
[2] = target: 28/32 kDa heterodimeric protein on the surface of malignant B-cells; test: whole cell indirect radioimmunoassay on HO-85 and Raji cells
[3] = target: T1, human CD3 antigen on the surface of T cells (human, UniProt P07766 23-207); test: Scatchard analysis, 125I-labelled antibody on activated human T cells
T1 construct: whole, on cells; also called human CD3 complex
T1 sequence (P07766 23-207): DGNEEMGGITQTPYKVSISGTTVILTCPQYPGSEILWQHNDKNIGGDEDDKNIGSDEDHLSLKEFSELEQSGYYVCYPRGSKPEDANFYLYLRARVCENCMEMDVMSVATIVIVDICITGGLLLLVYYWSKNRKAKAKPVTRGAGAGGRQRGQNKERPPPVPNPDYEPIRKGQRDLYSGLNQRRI
Procedure: Figure 11A: FIG. 11. (A). Displacement assay to compare the relative affinity of HuM291-Fos and M291 for their antigen. Sub-saturation amounts of murine M291-FITC on human T cells were displaced by increasing amounts of murine M291 or HuM291-Fos. T cells were resuspended in complete media at 2.5 ×10^6/ml. Dilutions of the test (HuM291-Fos) or control (murine M291) antibody were added and incubated at 4° C. for 1 hour. A fixed, subsaturation amount of murine M291-FITC was added, and the cells were incubated at 4° C. for 1 hour, wash d, and resuspended in 1% paraformaldehyde. The cells were then analyzed using flow cytometry. Values expressed in % inhibition of fluorescence intensity compared to no competitive antibody control. (B). Scatchard plot analysis of the binding of ^125I-label d HuM291-Fos to activated human T cells. […] The cells were washed in binding buffer (2% horse serum in PBS containing 0.1% sodium azide) and counted. Nonspecific binding was determined by inhibiting the specific binding with an excess of nonlabeled HuM291-Fos. The apparent K_a and the number of binding sites were calculated from the slope and th X axis intercept, respectively, of the Scatchard plot. […]
The relative affinity of murine M291 and HuM291-Fos F(ab'-zipper)_2 for T cells was evaluated using the displacement assay described above. […]

Ka [1]: 2.3e+08 M⁻¹ | sites per cell (sites per cell) [1]: 500000
B1: humanized 1D10-IgG1 (antibody, V domains shown)
VH: QVQLQESGPGLVKPSETLSLTCTVSGFSLTNYGVHWVRQSPGKGLEWIGVKWSGGSTEYNAAFISRLTISKDTSKNQVSLKLNSLTAADTAVYYCARNDRYAMDYWGQGTLVTVSS
VL: DIQMTQSPSSLSASVGDRVTITCRASENIYSYLAWYQQKPGKAPKLLVSNAKTLAEGVPSRFSGSGSGKQFTLTISSLQPEDFATYYCQHHYGNSYPFGQGTKLEIKR

binding activity relative to tissue culture medium alone [2]: 5 times
B2: mouse 1D10 antibody (parent, IgG1/kappa) (antibody, V domains shown)
VH: QVQLKQSGPGLVQPSQSLSITCTGSGFSLTNYGVHWVRQSPGKGLEWLGVKWSGGSTEYNAAFISRLSISKDNSKSQVFFKMNSLQADDTAMYYCARNDRYAMDYWGQGTSVTVSS
VL: DIQMTQSPASLSASVGETVTITCRASENIYSYLAWYQQKQGKSPQLLVSNAKTLAEGVTSRFSGSGSGKQFSLKINSLQPEDFGNYYCQHHYGNSYPFGGGTKLEIK

Ka [3]: ~1.1e+09 M⁻¹
B3: HuM291-Fos F(ab'-zipper)2 (antibody, V domains shown)
VH: QVQLVQSGAEVKKPGASVKVSCKASGYTFISYTMHWVRQAPGQGLEWMGYINPRSGYTHYNQKLKDKATLTADKSASTAYMELSSLRSEDTAVYYCARSAYYDYDGFAYWGQGTLVTVSS
VL: DIQMTQSPSSLSASVGDRVTITCSASSSVSYMNWYQQKPGKAPKRLIYDTSKLASGVPSRFSGSGSGTDFTLTISSLQPEDFATYYCQQWSSNPPTFGGGTKVEIKR
notes: Bivalent F(ab'-zipper)2 fragment without Fc; The heavy chain is the Fd-Fos (VH 1-120, CH1 121-218, modified hinge 219-238, Fos leucine zipper 239-279); 125I-labelled in the Scatchard analysis; also called humanized F(ab'-zipper)2 of M291
